The source of these data is patent US20220193237A1 (Bristol-Myers Squibb, published 2022).

Positions count from the first letter of the chain named. In names and notes the source's numbering stands. Read-outs that look alike come from different tables or passages of the source.

Experiment [1] deals with T1, human CTLA-4 on 58 α-β-CTLA-4/CD3 ζ cells (human; mouse (mCD3ζ)).
T1 construct: also called 58αβ-hCTLA4/mCD3ζ cells; 58αβ-CTLA4/mCD3ζ cells
Briefly: flow cytometry (GMFI), full-length IgG on 58 α-β-CTLA-4/CD3 ζ cells, pH 6.3.

Experiment [2] concerns the target T1, human CTLA-4 on 58 α-β-CTLA-4/CD3 ζ …. The experiment is described as follows: flow cytometry (GMFI), full-length IgG on 58 α-β-CTLA-4/CD3 ζ cells, pH 6.6.
Experiment [3] shares this target. Briefly: flow cytometry (GMFI), full-length IgG on 58 α-β-CTLA-4/CD3 ζ cells, pH 7.2.
The target of experiment [4] is T2, monomeric human CTLA-4 (human, UniProt P16410 36-161, limits assumed).
T2 construct: Soluble monomeric analyte in SPR; also called huCTLA-4
T2 sequence: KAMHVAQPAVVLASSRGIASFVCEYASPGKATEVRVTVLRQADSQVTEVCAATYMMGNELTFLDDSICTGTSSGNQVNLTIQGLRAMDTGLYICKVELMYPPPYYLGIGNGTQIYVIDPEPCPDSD
Briefly: SPR, captured Fab, pH 6.0 vs 7.4.

In experiment [5] the target is T2, monomeric human CTLA-4. Briefly: SPR, captured Fab, pH 7.4; pH 7.4. The method, then: (§1) Unless otherwise indicated, experiments were performed with a BIACORE® SPR surface plasmon resonance spectrometer (Biacore AB, Uppsala, Sweden). Antibodies were tested as monovalent Fab fragments to simplify analysis.
(§2) Monomeric human CTLA-4 was flowed as analyte with up to 2 μM top concentration. Between cycles, the capture surface was regenerated with 75 mM phosphoric acid. Experiments were run on a BIACORE® T200 instrument at 37° C. Running buffers were HEPES buffered saline for pH 7.4 experiments and Bis-Tris buffered saline for lower pH experiments. […] Double referenced sensorgrams were fitted to a 1:1 Langmuir binding model with mass transport to determine equilibrium dissociation constants (KD), as well as association (kₐ) and dissociation (kd) rate constants where appropriate.

The target of experiment [6] is T2, monomeric human CTLA-4. The experiment is described as follows: SPR, captured Fab, pH 6.0.
In experiment [7] the target is T2, monomeric human CTLA-4. Briefly: SPR, captured Fab, pH 7.4. The method, then: as §1, §2
The target in experiment [8] is T2, monomeric human CTLA-4. Briefly: SPR, captured Fab, pH 7.4. This is another data set of the same source.
Experiment [9] concerns the target T2, monomeric human CTLA-4. The experiment is described as follows: SPR, captured Fab, pH 6.0. The method, then: as §1, §2
The source holds these as a separate data set.

Experiment [10] addresses T2, monomeric human CTLA-4. The experiment is described as follows: SPR, captured Fab, pH 6.0 vs 7.4. As for the experimental part: as §1, §2
The source holds these as a separate data set.

Experiment [11] addresses T2, monomeric human CTLA-4. Briefly: SPR, captured Fab, pH 6.0 and pH 7.4.

B1: ipi.71 (full-length IgG) (antibody, V domains shown)
VH: QVQLVESGGGVVQPGRSLRLSCAASGFTFSHYTMHWVRQAPGKGLEWVTFISYDGHNKYYADSVKGRFTISRDNSKNTLYLQMNSLRAEDTAIYYCARTGWLGPFDYWGQGTLVTVSS
VL: not shown
notes: Full-length bivalent IgG (human IgG1); heavy chain entry is without the C-terminal lysine
B1: the “EC50 (read off the curve)” value in experiment [1], in experiment [2] and in experiment [3] was roughly 1 nM in each case.

B2: ipi.90 Fab (Fab, V domains shown)
VH: B1 VH with H56N, T99H
VL: EIVLTQSPGTLSLSPGERATLSCRASQEVGDSELAWYQQKPGQAPRLLIYGAFSRATGIPDRFSGSGSGTDFTLTISRLEPEDFAVYYCQQYGSSPWTFGQGTKVEIKR
notes: Tested as monovalent Fab
For B2, the “KD 7.4/6 (APBP)” value with monomeric human CTLA-4 [4] was greater than 28. Also, the Kd in the experiment with monomeric human CTLA-4 [5] was greater than 1000 nM. Moreover, in the experiment with monomeric human CTLA-4 [6], binding was characterised by a dissociation constant (Kd) of 36 nM, the kon turned out to be 1.9e+06 M⁻¹ s⁻¹ and the “t1/2” value turned out to be 10 s.

B3: ipi.3 Fab (Fab, V domains shown)
VH: B1 VH with H31S, H56N, T99H
VL: not shown
notes: Tested as monovalent Fab; also called HCDR3 T95H (Kabat)
For the molecule B3, the “KD 7.4/6 (APBP)” value with monomeric human CTLA-4 [4] was found to be 1.3; in the experiment with monomeric human CTLA-4 [10] it was 0.9. Also, the equilibrium dissociation constant (Kd) with monomeric human CTLA-4 [7] amounted to 200 nM; in the experiment with monomeric human CTLA-4 [8], 97 nM; in the experiment with monomeric human CTLA-4 [6], 76 nM; in the experiment with monomeric human CTLA-4 [9] it was 180 nM. Also, the results for the koff with monomeric human CTLA-4 [7] and in the experiment with monomeric human CTLA-4 [9] were 0.094 s⁻¹ and 0.15 s⁻¹, respectively. Moreover, the figures for the kon in the experiment with monomeric human CTLA-4 [7], with monomeric human CTLA-4 [6] and with monomeric human CTLA-4 [9] were 480000 M⁻¹ s⁻¹, 1.1e+06 M⁻¹ s⁻¹ and 840000 M⁻¹ s⁻¹, respectively. In the experiment with monomeric human CTLA-4 [6], the “t1/2” value was determined as 9 s. Also, in the experiment with monomeric human CTLA-4 [11], the “fold decrease of affinity (increased KD) vs ipilimumab” value is roughly 4 fold.
